The data set has as its target T1, HapR (Vibrio cholerae E7946 (El Tor)) (UniProt Q4F6W7).
T1 sequence: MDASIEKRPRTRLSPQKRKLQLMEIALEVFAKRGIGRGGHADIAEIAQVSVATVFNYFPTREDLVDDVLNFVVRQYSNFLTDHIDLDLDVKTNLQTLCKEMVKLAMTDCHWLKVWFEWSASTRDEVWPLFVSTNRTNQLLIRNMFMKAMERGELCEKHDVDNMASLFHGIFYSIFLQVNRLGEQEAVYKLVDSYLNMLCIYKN
The experiment in a line: EMSA. Conditions: 1-2 internal Cy5-dCTP incorporated by PCR. (In EMSA bound probe runs differently from free probe, usually more slowly.)

Consider “TAAGCAAACTGTAGCGTAGAAGGTTGACGAAACAAGCAATCATCTGCTAACAATGGTCCGTGTGATACCCATCATCCGGGCCATTTATTTTAGGGATATAAGACTATGAGCTACCAAGAAAAAAATGCA (double strand) [PclpP promoter probe]”, for which the binding result is reported as “no binding”.

Values taken from article doi:10.1101/2020.04.16.045526.
